These results are taken from PMC3302767.

The target in experiment [1] is Plasmodium falciparum formin 1 FH1 and FH2 domains (Pf-Frm1-FH1FH2) (P. falciparum). The experiment in a line: SEC-MALS; Superdex 200 10/300 GL, 200 µl of each formin at 1 mg/ml; 50 mM sodium phosphate pH 7.0, 50 mM NaCl, 1 mM DTT; monomer to dimer. On the technique in general: Size exclusion chromatography separates by hydrodynamic size, large species first.
For experiment [2], the target named is Plasmodium falciparum formin 1 FH2 domain with the lasso segment (Pf-Frm1-FH2) (P. falciparum). The description is as above.

As for “Plasmodium falciparum formin 1 FH1 and FH2 domains (Pf-Frm1-FH1FH2) (domain or fragment)”, the stoichiometry N (commonly a count of units in the complex or per binding partner) in experiment [1] came to 2.

In experiment [2], “Plasmodium falciparum formin 1 FH2 domain with the lasso segment (Pf-Frm1-FH2) (domain or fragment)” displayed a stoichiometry N of 2.
